Laboratory results published in patent US20170362341A1.

Tests used:
[1] = target: CD-30 on Karpas 299 and L540 cells (UniProt P28908); assay: FACS-based cell binding on L540 cells, Alexa-488 goat anti-human IgG detection, MFI normalised to the averaged maximum (% binding)
[2] = target: CD-30 on Karpas 299 and L540 cells (UniProt P28908); assay: flow cytometry on L540 cells, one site-total binding fit
[3] = target: CD-30 on Karpas 299 and L540 cells (UniProt P28908); assay: flow cytometry on Karpas 299 cells, one site-total binding fit
[4] = target: CD-30 on Karpas 299 and L540 cells (UniProt P28908); assay: FACS-based cell binding on Karpas 299 cells, Alexa-488 goat anti-human IgG detection, MFI normalised to the averaged maximum (% binding)
HER2 on SKBR3 cells [5] = target: HER2 on SKBR3 cells (UniProt P04626); assay: flow cytometry on SKBR3 cells, one site specific binding fit; column head prints 'Cell Binding IC50, nM' (heads of c3 and c4 seem swapped)
HER2 on SKBR3 cells [6] = target: HER2 on SKBR3 cells (UniProt P04626); assay: flow cytometry on SKBR3 cells

Chain of UniProt P28908 (P28908 19-595 limits assumed): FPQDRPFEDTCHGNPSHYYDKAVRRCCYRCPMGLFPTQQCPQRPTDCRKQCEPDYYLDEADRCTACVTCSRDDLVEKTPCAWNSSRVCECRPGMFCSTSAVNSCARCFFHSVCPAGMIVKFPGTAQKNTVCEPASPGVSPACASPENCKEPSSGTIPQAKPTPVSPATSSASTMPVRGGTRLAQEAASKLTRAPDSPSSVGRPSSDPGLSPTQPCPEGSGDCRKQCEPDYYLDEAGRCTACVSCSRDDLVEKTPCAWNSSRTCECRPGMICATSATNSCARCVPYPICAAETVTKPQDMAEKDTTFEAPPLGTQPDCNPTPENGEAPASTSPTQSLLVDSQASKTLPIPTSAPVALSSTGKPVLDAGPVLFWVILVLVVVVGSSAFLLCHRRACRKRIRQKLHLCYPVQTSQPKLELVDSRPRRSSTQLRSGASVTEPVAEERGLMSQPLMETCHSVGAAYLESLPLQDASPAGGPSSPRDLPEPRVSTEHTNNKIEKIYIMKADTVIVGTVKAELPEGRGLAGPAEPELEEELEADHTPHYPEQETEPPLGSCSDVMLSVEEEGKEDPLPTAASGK

Row | Substance | EC50 (read off the curve) [1] [nM] | Kd [2] [nM] | Kd [3] [nM] | EC50 (read off the curve) [4] [nM] | Kd (HER2 on SKBR3 cells [5]) [nM] | Kd (HER2 on SKBR3 cells [6]) [nM]
1 | Aglycosylated Brentuximab IgG HC-K121 conjugated to DBCO-MMAF 2 (antibody) |  | 1.3 | 0.52 | 0.4 |  | 
2 | Aglycosylated Brentuximab IgG LC-N152 conjugated to DBCO-MMAF 2 (antibody) | 0.6 | 1 | 0.5 | 0.4 |  | 
3 | Trastuzumab scFv (VL_VH) with pN3F at position (-1), conjugated to DBCO-MMAF |  |  |  |  | 14 | 
4 | Trastuzumab scFv-Fc (-1) pN3F conjugated to DBCO-MMAF (Fc fusion) |  |  |  |  |  | 6.8

The next lines start with the values.

Row | EC50 (read off the curve) [1] [nM] | Kd [2] [nM] | Kd [3] [nM] | EC50 (read off the curve) [4] [nM] | Kd (HER2 on SKBR3 cells [5]) [nM] | Kd (HER2 on SKBR3 cells [6]) [nM] | Substance
5 | 1 |  |  |  |  |  | Adcetris HC F404 unconjugated (antibody)
6 | 0.8 |  |  |  |  |  | Adcetris HC K121 unconjugated (antibody)
7 | 0.7 | 0.81 | 0.46 | 0.3 |  |  | Aglycosylated Brentuximab IgG HC-F404 conjugated to DBCO-MMAF 2 (antibody)
